72 molecules from patent publication US8613931B2, “Compounds for treating beta-amyloidoses” (Affiris AG, priority 2008, dated 2013) can be followed below.

For assay [1], the system named is monoclonal antibody MV-001. Description: In vitro binding assay (ELISA), parental antibody MV-001. Also on record: species or system C57/Bl6 mice. The conditions noted are these: peptide-BSA on ELISA plate; OD halfmax, dilution factor 1:X of parental AB MV-001. The method, then: 1. In vitro binding assay (ELISA)
Peptides derived from Phage Display as well as variants thereof were coupled to BSA and bound to ELISA plates (1 μM; as indicated in the respective figures) and subsequently incubated with the monoclonal antibody that was used for the screening procedure to analyse binding capacity of identified peptides.

The target in assay [2] is monoclonal antibody MV-001. Description: ELISA, peptide-BSA coated, MV-001. To be noted: for Binding Capacity: scale: code.
For assay [3], the target named is monoclonal antibody MV-001. Description: inhibition ELISA; competitor: coated original epitope p4371. The conditions noted are these: for Inhibition Capacity: scale: code.

As for QLFKHSPC [p4747], the “Binding Capacity” value in assay [1] is 3 (strong binding :>20000). Still for that read-out and setting: the figure for EDWFFWHC [p4709] is 1 (weak binding :<4000). On the same count and under the same terms, the figure for QELKRYYC [p4724] is 1 (weak binding :<4000).

As for EFLRHTLC [p4722], the “Binding Capacity” value in assay [1] is 3 (strong binding :>20000). Same read-out and setting: the result for THMEFRRC [p4745] reads 3 (strong binding :>20000); that for APIQFRHC [p4750], 3 (strong binding :>20000). On the same count and under the same terms, the result for NSSELRHC [p4752] reads 3 (strong binding :>20000); that for SNSEFRRC [p4743], 3 (strong binding :>20000). The same measure, in the same setting: the result for NELRHSTC [p4701] reads 3 (strong binding :>20000). Regarding SAGSFRHC [p4710], the “Binding Capacity” value in assay [1] is recorded as 3 (strong binding :>20000). The same measure, in the same setting: the result for TSTEMWHC [p4754] reads 1 (weak binding :<4000); that for LHIPFRHC [p4726], 3 (strong binding :>20000). On the same count and under the same terms, the figure for QPNLFYHC [p4713] is 1 (weak binding :<4000); for SEFSHSSC [p4712] it is 3 (strong binding :>20000); for SQSYFKHC [p4755] it is 3 (strong binding :>20000). Same read-out and setting: the result for SELRHSTC [p4744] reads 3 (strong binding :>20000); that for ATPLFRHC [p4723], 3 (strong binding :>20000); that for TPLMFWHC [p4733], 1 (weak binding :<4000). GEMRHQPC [p4702]: the “Binding Capacity” value in assay [1] is 3 (strong binding :>20000). As to SNFRHSVC [p4749], the “Binding Capacity” value in assay [1] is 3 (strong binding :>20000). HEPLFSHC [p4719]: the “Binding Capacity” value in assay [1] is 1 (weak binding :<4000). With AANYFPRC [p4706], the Binding Capacity in assay [2] was found to be 2. Still for that read-out and setting: the result for NSSELRHC [p4752] reads 3; that for AYFPHTSC [p4751], 2. SEFKHGC [p4381] had an Inhibition Capacity (code (weaker than original epitope)) in assay [3] of 1. Also, in assay [2], the Binding Capacity was determined as 3.

In turn, AEFMHSVC [p4739] yielded a Binding Capacity in assay [2] of 2. Same read-out and setting: the figure for EFLRHTLC [p4722] is 3. As to CHEFRH [p4802], in assay [3], the Inhibition Capacity was 2. In assay [2], this molecule showed a Binding Capacity of 3. In turn, VELRHSRC [p4704] showed a Binding Capacity in assay [2] of 2. For the molecule TPLMFWHC [p4733], the Binding Capacity (code (weak binding, OD halfmax 1:<4000)) in assay [2] turned out to be 1. The molecule QDFRHYC [p4380] gave an Inhibition Capacity (code (weaker than original epitope)) in assay [3] of 1. The same molecule yielded a Binding Capacity in assay [2] of 2. Regarding HEFRHC [p4803], the Inhibition Capacity in assay [3] is 2. Moreover, in assay [2], the Binding Capacity is 3. For SLMRHSSC [p4721], in assay [2], the Binding Capacity came to 2. QVMRHHAC [p4711] gave a Binding Capacity in assay [2] of 2. Same read-out and setting: the figure for SQYFPRPC [p4729] is 2; for SNFRHSVC [p4749] it is 3. The same measure, in the same setting: the figure for THMEFRRC [p4745] is 3. The molecule QELKRYYC [p4724] displayed a Binding Capacity (code (weak binding, OD halfmax 1:<4000)) in assay [2] of 1. Turning to HEPLFSHC [p4719], the Binding Capacity (code (weak binding, OD halfmax 1:<4000)) in assay [2] worked out at 1. NELRHSTC [p4701] yielded a Binding Capacity in assay [2] of 3. Consider TPFRHTC [p4384], for which the Inhibition Capacity (code (weaker than original epitope)) in assay [3] worked out at 1. The molecule also displayed a Binding Capacity in assay [2] of 2. In assay [2], ATFRHSPC [p4716] displayed a Binding Capacity of 2.

Turning to GEMRHQPC [p4702], the Binding Capacity in assay [2] stood at 3. On the same count and under the same terms, the figure for NELFKHFC [p4727] is 2.

On to YSMRHDAC [p4705], for which, in assay [2], the Binding Capacity was determined as 2. In the case of SAGSFRHC [p4710], the Binding Capacity in assay [2] was 3. SEFSHSSC [p4712] displayed a Binding Capacity in assay [2] of 3. The same measure, in the same setting: the figure for ELFKHHLC [p4714] is 3; for APIQFRHC [p4750] it is 3. Same read-out and setting: the result for SQSYFKHC [p4755] reads 3.

TSTEMWHC [p4754]: in assay [2], the Binding Capacity (code (weak binding, OD halfmax 1:<4000)) worked out at 1. Regarding TSVFRHC [p4383], in assay [3], the Inhibition Capacity (code (weaker than original epitope)) amounted to 1. The Binding Capacity in assay [2] amounted to 3.

On to TSFRHGC [p4382], for which, in assay [3], the Inhibition Capacity (code (weaker than original epitope)) was 1. The molecule further showed a Binding Capacity in assay [2] of 2. On to QLFKHSPC [p4747], for which the Binding Capacity in assay [2] was 3. On the same count and under the same terms, the figure for SAMRHSLC [p4732] is 2; for IGFRHDSC [p4742] it is 2. QPNLFYHC [p4713] came in with a Binding Capacity (code (weak binding, OD halfmax 1:<4000)) in assay [2] of 1. Same read-out and setting: the result for EDWFFWHC [p4709] reads 1. The molecule SSSFFPRC [p4708] gave a Binding Capacity in assay [2] of 2.

Turning to TYFSHSLC [p4718], in assay [2], the Binding Capacity worked out at 2. Same read-out and setting: the figure for ATPLFRHC [p4723] is 3. The same measure, in the same setting: the figure for MLPFRHGC [p4731] is 2; for ATFRHSTC [p4735] it is 2. SNSEFRRC [p4743]: the Binding Capacity in assay [2] came out at 3. Same read-out and setting: the result for LQFKHSTC [p4734] reads 2; that for DTYFPRSC [p4703], 2; that for LHIPFRHC [p4726], 3. Still for that read-out and setting: the figure for TGLMFKHC [p4736] is 2.

APMYFPHC [p4717] showed a Binding Capacity in assay [2] of 2. Same read-out and setting: the result for SELRHSTC [p4744] reads 3; that for AEFSHWHC [p4737], 2; that for YEFRHAQC [p4748], 3.
